Experimental data published in PMC9621051 (mAbs, 2022).

Target: the molecule itself
Assay: native MS

B1: phospholipase D3 (PLD3) (enzyme)
chain: MKPKLMYQELKVPVEEPAGELPVNEIEAWKAAEKKARWVLLVLILAVVGFGALMTQLFLWEYGDLHLFGPNQRPAPCYDPCEAVLVESIPEGLEFPNATTSNPSTSQAWLGLLAGAHSSLDIASFYWTLTNNDTHTQEPSAQQGEEILQQLQALAPRGVKVRIAVSKPNGPLADLQSLLQSGAQVRMVDMQKLTHGVLHTKFWVVDQTHFYLGSANMDWRSLTQVKELGVVMYNCSCLARDLTKIFEAYWFLGQAGSSIPSTWPRPFDTRYNQETPMEICLNGTPALAYLASAPPPLCPSGRTPDLKALLSVVDSARSFIYIAVMNYLPTMEFSHPRRFWPAIDDGLRRAAYERGVKVRLLVSCWGHSEPSMRSFLLSLAALRDNHTHSDIQVKLFVVPADEAQARIPYARVNHNKYMVTERAVYIGTSNWSGSYFTETAGTSLLVTQNGHDGLRSQLEDVFLRDWNSLYSHNLDTAADSVGNACRLL
- stoichiometry N: 2
